{"source": "paper PMC6593972", "about": "“Two-Step Activation Mechanism of the ClpB Disaggregase for Sequential Substrate Threading by the Main ATPase Motor” (Cell Reports, 2019)", "proteins": {"B1": {"name": "ClpB-DWB-K476C (natural protein)", "chain": "not shown", "notes": "ClpB, bacterial disaggregase, with K476C (M-domain) and the double Walker B mutations E279A/E678A; ATPase-deficient variant used to trap substrate for cryo-EM in the presence of ATPγS; also called ClpB-K476C-DWB; ClpB-K476C/E279A/E678A; source: E. coli ΔclpB::kan cells, purified (Ni-IDA, size exclusion chromatography Superdex S200)"}}, "target": "the molecule itself", "experiment": "cryo-EM structure; ClpB hexamer with a 20-fold molar excess of casein, 10 min at room temperature in 25 mM Tris-HCl pH 7.4, 25 mM KCl, 10 mM MgCl2, 2 mM ATPγS, 1 mM DTT; single-particle cryo-EM"}
{"protein": "B1", "values": [{"measurement": "stoichiometry N", "value": 6}]}
